Laboratory results reported in PMC9007595 (Molecular microbiology, 2020).

Assays:
Experiment in all cases: cross-linking
[1] = biological target: Mycobacterium tuberculosis HtpG-His6 with para-benzoyl-phenylalanine at F10 (Mycobacterium tuberculosis) (UniProt P9WMJ7)
[2] = biological target: Mycobacterium tuberculosis HtpG-His6 with para-benzoyl-phenylalanine at W197 (Mycobacterium tuberculosis) (UniProt P9WMJ7)
[3] = biological target: Mycobacterium tuberculosis HtpG-His6 with para-benzoyl-phenylalanine at F635 (Mycobacterium tuberculosis) (UniProt P9WMJ7)

Mycobacterium tuberculosis HtpG-His6 with para-benzoyl-phenylalanine at F10 (from UniProt P9WMJ7 1-647) (natural protein)
stoichiometry N [1]: 2

Mycobacterium tuberculosis HtpG-His6 with para-benzoyl-phenylalanine at W197 (from UniProt P9WMJ7 1-647) (natural protein)
stoichiometry N [2]: 2

Mycobacterium tuberculosis HtpG-His6 with para-benzoyl-phenylalanine at F635 (from UniProt P9WMJ7 1-647) (natural protein)
stoichiometry N [3]: 2
